Here are results for 1 protein from FireProtDB (doi:10.1046/j.1432-1327.1999.00751.x).

For the data set the following is noted: Pseudomonas aeruginosa (strain ATCC 15692 / DSM 22644 / CIP 104116 / JCM 14847 / LMG 12228 / 1C / PRS 101 / PAO1); pH 7.2; 20 °C; GdnHCl; CD + Fluorescence; Tris-HCl 50 mM; reversible: yes; whole UniProt chain shown.

B1: Azurin wild type, P00282 (protein)
chain: MLRKLAAVSLLSLLSAPLLAAECSVDIQGNDQMQFNTNAITVDKSCKQFTVNLSHPGNLPKNVMGHNWVLSTAADMQGVVTDGMASGLDKDYLKPDDSRVIAHTKLIGSGEKDSVTFDVSKLKEGEQYMFFCTFPGHSALMKGTLTLK
As to B1, the denaturant m value stood at 3.3 kcal/mol/M, the “denaturant midpoint (higher = more stable)” value stood at 2.78 M and the unfolding free energy is 9.4 kcal/mol.
